Values of other authors as cited in patent US20260183395A1, “COMBINED THERAPIES USING IMMUNOMODULATING DRUGS” (ONK THERAPEUTICS LIMITED, priority 2022, published 2026).
pKd: −log10 of the molar value.

How the values were obtained:
DR4 = DR4 (Homo sapiens, UniProt O00220); conditions: surface plasmon resonance; WO 2009/077857
decoy receptor DcR1 = target: T1, decoy receptor DcR1 (Homo sapiens, UniProt O14798); conditions: surface plasmon resonance; WO 2009/077857
T1 sequence (O14798 26-236): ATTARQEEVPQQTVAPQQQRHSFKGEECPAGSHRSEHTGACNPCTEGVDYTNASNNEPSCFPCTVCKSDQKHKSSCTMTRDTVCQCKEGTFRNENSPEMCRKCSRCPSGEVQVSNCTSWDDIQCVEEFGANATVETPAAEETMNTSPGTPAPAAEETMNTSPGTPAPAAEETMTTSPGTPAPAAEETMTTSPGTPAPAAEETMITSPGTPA

- pKd (DR4): < 8.70
- pKd (decoy receptor DcR1): < 7.70
Substance: Wildtype TRAIL: Wildtype TRAIL ligand, baseline for the affinity of TRAIL variants/mutants
